The target of experiment [1] is T1, human FGFR1b-IIIc extracellular domain with a HIS tag (human, UniProt P11362 22-376).
T1 construct: also called huFGFR1b-IIIc; hFGFR1b-IIIc
T1 sequence: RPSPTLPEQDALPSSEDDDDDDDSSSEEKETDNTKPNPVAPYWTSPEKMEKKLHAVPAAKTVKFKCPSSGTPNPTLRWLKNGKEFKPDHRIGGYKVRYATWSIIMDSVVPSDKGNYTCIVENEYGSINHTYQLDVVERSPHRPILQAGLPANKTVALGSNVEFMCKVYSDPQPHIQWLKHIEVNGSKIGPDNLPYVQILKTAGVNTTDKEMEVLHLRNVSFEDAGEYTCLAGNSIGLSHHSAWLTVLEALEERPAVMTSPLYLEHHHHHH
As to the kind of experiment: ELISA, EC50 from OD450 curves, monovalent SEEDbody format. How it is done:
(§1) The binding selectivity of the antibodies were tested by ELISA against the different FGFR family members: FGFR1, FGFR2, FGFR3 and FGFR4. Briefly plates were coated overnight with the different His6-tagged FGFR proteins, after blocking with 1% Bovine Serum albumin, 1 or 0.1 μg/ml of anti-FGFR1 antibodies were incubated for 1 h at room temperature. After washing, the bound antibodies were incubated for 1 h at room temperature with a peroxidase affiniPure F(ab′)2 Fragment goat anti-human Fc (Jackson ImmunoResearch Laboratories #109-036-098) and detection was performed using the TMB HRP Substrate solution (BioFx Lab # TMBW-1000-01).
(§2) The antibody #A08 both as an IgG1 (bivalent) and as a SEEDbody (monovalent), was affinity matured using the yeast display technology described in (Rhiel et al. 2014) and performing light chain shuffling from immunized OmniRats and naïve human library followed by CDR-H3 parsimonious mutagenesis. Following several sorting rounds, yeast clones were picked, unique clones were reformatted as described in Examples 1.6 and 3.1. The binding affinities of the anti-FGFR1 molecules against human FGFR1b-IIIb) and human FGFR1b-IIIc) were measured by ELISA using a similar protocol as described in Example 1.9. The OD450 was plotted against the antibody concentration and GraphPad Prism software was used to calculate EC₅₀ values (see FIG. 10). […] The best results were obtained with mAb #A02 and #C01 showing an EC50 improvement in both IgG1 and SEEDbody formats.

For experiment [2], the target named is T2, human FGFR1b-IIIb extracellular domain with a HIS tag (human).
T2 construct: also called huFGFR1b-IIIb; hFGFR1b-IIIb
T2 chain: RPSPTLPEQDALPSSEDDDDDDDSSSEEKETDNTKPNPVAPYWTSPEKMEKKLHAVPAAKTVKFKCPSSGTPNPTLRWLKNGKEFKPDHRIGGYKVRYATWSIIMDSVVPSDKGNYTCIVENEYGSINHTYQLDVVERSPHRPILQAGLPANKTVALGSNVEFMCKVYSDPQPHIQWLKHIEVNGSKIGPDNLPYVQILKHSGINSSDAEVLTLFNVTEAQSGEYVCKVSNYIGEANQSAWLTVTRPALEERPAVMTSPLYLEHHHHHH
As to the kind of experiment: SPR (BIAcore), SEEDbody format; target IIIb by paragraph 74 and paragraph 125, the table's title says IIIc. How it is done:
(§3) Binding affinities of anti-FGFR1 antibodies to FGFR1 were measured by Surface Plasmon Resonance (SPR) using a GE Healthcare BIAcore 4000 instrument as follows. Goat anti-human Fc antibody (Jackson ImmunoResearch Laboratories #109-005-098) was first immobilized on BIAcore carboxymethylated dextran CM5 chip using direct coupling to free amino groups following the procedure described by the manufacturer. Antibodies were then captured on the CM5 biosensor chip to achieve approximately 200 response units (RU). Binding measurements were performed using the running HBS-EP+ buffer. A 2-fold dilution series of His-tagged FGFR1 proteins were injected at a flow rate of 30 μl/min at 25° C. Association rates (kₒₙ, per mol/s) and dissociation rates (koff, per s) were calculated using a simple 1:1 Langmuir binding model (Biacore 4000 Evaluation Software). The equilibrium dissociation constant (KD, mol) was calculated as the ratio of koff/kₒₙ.
(§4) The affinities to human FGFR1b-IIIb for the affinity matured clones reformatted as IgG and monovalent SEEDbodies were measured by BIAcore (using a protocol similar to the one described in Example 1.8) and compared to those of mAb #08 (Table 5).

In experiment [3] the target is T2, human FGFR1b-IIIb extracellular domain …. As to the kind of experiment: ELISA, EC50 from OD450 curves, monovalent SEEDbody format. How it is done:
as §1, §2

Experiment [4] has as its target FGFR1 on NCI-H520 cells (human, UniProt P11362 22-822). As to the kind of experiment: cell-based or functional assay.
Experiment [5] has as its target T1, human FGFR1b-IIIc extracellular domain …. As to the kind of experiment: ELISA, EC50 from OD450 curves, IgG1 format. The procedure:
as §1
The antibody #A08 both as an IgG1 (bivalent) and as a SEEDbody (monovalent), was affinity matured using the yeast display technology described in (Rhiel et al. 2014) and performing light chain shuffling from immunized OmniRats and naïve human library followed by CDR-H3 parsimonious mutagenesis. Following several sorting rounds, yeast clones were picked, unique clones were reformatted as described in Examples 1.6 and 3.1. The binding affinities of the anti-FGFR1 molecules against human FGFR1b-IIIb) and human FGFR1b-IIIc) were measured by ELISA using a similar protocol as described in Example 1.9. The OD450 was plotted against the antibody concentration and GraphPad Prism software was used to calculate EC₅₀ values (see FIG. 10). […]

The target in experiment [6] is T2, human FGFR1b-IIIb extracellular domain …. As to the kind of experiment: SPR (BIAcore), IgG1 format; target IIIb by paragraph 74 and paragraph 125, the table's title says IIIc. How it is done: as §3, §4

Changes are numbered by the printed parent chain.

Chain of FGFR1 on NCI-H520 cells (P11362 22-822): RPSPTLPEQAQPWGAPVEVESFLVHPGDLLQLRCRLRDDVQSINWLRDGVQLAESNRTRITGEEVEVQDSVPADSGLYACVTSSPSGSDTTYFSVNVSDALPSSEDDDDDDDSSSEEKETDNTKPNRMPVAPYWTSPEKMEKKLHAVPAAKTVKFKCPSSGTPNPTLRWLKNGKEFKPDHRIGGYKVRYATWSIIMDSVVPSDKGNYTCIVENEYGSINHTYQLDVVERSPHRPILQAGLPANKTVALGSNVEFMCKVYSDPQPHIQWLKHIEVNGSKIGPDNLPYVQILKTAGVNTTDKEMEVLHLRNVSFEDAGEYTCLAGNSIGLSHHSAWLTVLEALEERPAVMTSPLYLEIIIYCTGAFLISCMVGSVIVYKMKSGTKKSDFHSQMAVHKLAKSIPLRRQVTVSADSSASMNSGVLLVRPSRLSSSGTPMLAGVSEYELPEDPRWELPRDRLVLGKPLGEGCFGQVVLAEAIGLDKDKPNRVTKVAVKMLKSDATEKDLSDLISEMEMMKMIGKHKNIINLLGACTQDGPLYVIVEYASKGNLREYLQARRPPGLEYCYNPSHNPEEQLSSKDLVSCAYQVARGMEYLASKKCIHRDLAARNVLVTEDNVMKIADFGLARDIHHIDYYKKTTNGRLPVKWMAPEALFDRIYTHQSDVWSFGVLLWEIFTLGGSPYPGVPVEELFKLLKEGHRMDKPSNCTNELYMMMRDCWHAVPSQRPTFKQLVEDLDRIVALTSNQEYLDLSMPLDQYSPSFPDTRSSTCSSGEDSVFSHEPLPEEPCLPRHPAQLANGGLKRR

B1: #A02 SEEDbody (monovalent) (antibody)
heavy: QVQLQESGPGLVKPSGTLSLTCAVSGGSISSNNWWSWVRQPPGKGLEWIGEIYHSGSTSYNPSLKSRVTISVDKSKNQFSLKLSSVTAADTAVYYCARATDWFDLWGQGTLVTVSSASTKGPSVFPLAPSSKSTSGGTAALGCLVKDYFPEPVTVSWNSGALTSGVHTFPAVLQSSGLYSLSSVVTVPSSSLGTQTYICNVNHKPSNTKVDKRVEPKSCDKTHTCPPCPAPELLGGPSVFLFPPKPKDTLMISRTPEVTCVVVDVSHEDPEVKFNWYVDGVEVHNAKTKPREEQYNSTYRVVSVLTVLHQDWLNGKEYKCKVSNKALPAPIEKTISKAKGQPFRPEVHLLPPSREEMTKNQVSLTCLARGFYPKDIAVEWESNGQPENNYKTTPSRQEPSQGTTTFAVTSKLTVDKSRWQQGNVFSCSVMHEALHNHYTQKTISLSPG
chain: EPKSSDKTHTCPPCPAPELLGGPSVFLFPPKPKDTLMISRTPEVTCVVVDVSHEDPEVKFNWYVDGVEVHNAKTKPREEQYNSTYRVVSVLTVLHQDWLNGKEYKCKVSNKALPAPIEKTISKAKGQPREPQVYTLPPPSEELALNELVTLTCLVKGFYPSDIAVEWLQGSQELPREKYLTWAPVLDSDGSFFLYSILRVAAEDWKKGDTFSCSVMHEALHNHYTQKSLDRSPG
light: SYVLTQPPSVSVAPGQTARITCGGNNIGSESVHWYQQKPGQAPVLVVYDDSDRPSGIPERFSGSNSGNTATLTISRVEAGDEADYYCQVWDSTSDHRVFGGGTKLTVLGQPKAAPSVTLFPPSSEELQANKATLVCLISDFYPGAVTVAWKADSSPVKAGVETTTPSKQSNNKYAASSYLSLTPEQWKSHKSYSCQVTHEGSTVEKTVAPTECS
notes: also called #A02-SEED(AG)
For B1, in experiment [1], the binding result is “binds”. This molecule came in with a Kd in experiment [2] of 60 pM.

B2: #D01 SEEDbody (monovalent) (antibody)
heavy: B1 heavy with L105H
chain: B1 chain
light: B1 light
notes: also called #D01-SEED(AG)
As to B2, the binding result in experiment [1] is on record as “binds”. In experiment [2], binding was characterised by a dissociation constant (Kd) of 50 pM.

B3: #D02 SEEDbody (monovalent) (antibody)
heavy: B1 heavy with A99G, F103I, L105T
chain: B1 chain
light: B1 light
notes: also called #D02-SEED(AG)
As for B3, the binding result in experiment [3] and in experiment [1] was “binds” throughout.

B4: #B10 SEEDbody (monovalent) (antibody)
heavy: B1 heavy with F103Y, L105P
chain: B1 chain
light: B1 light
notes: also called #B10-SEED(AG)
Take B4: in experiment [1], the binding result is “binds”. For the same molecule, binding in experiment [2] was characterised by a dissociation constant (Kd) of 20 pM.

B5: monovalent SEEDbody #A08 (antibody)
heavy: B1 heavy with Q1E, A99G, L105P
chain: B1 chain
light: B1 light
notes: One-armed SEEDbody: full SEED(AG) heavy chain, partial hinge-CH2-CH3 SEED(GA) chain, lambda light chain; produced in CHO-LF cells (afucosylated); also called anti-FGFR1 SEEDbody; #A08 SEEDbody
Take B5: in experiment [2], the Kd was determined as 80 pM. In addition, in experiment [4], the “IC50, pFGFR1 inhibition in NCI-H520 cells, FGF1, SEEDbody” value is 7e-08 M; the “IC50, pFGFR1 inhibition in NCI-H520 cells, FGF2, SEEDbody” value came to 6e-09 M; the “IC50, pFGFR1 inhibition in NCI-H520 cells, non-stimulated, SEEDbody” value worked out at 2e-08 M.

B6: #C01 SEEDbody (monovalent) (antibody)
heavy: B1 heavy with L105A
chain: B1 chain
light: B1 light
notes: also called #C01-SEED(AG)
Take B6: in experiment [1], the binding result is “binds”. This molecule also showed a Kd in experiment [2] of 40 pM.

B7: SEEDbody #A07 (monovalent) (antibody)
heavy: B1 heavy with A99G, F103Y, L105P
chain: B1 chain
light: B1 light
notes: also called #A07-SEED(AG)
For B7, in experiment [1], the binding result is listed as “binds”. The molecule further registered a Kd in experiment [2] of 40 pM.

B8: A05 SEEDbody (monovalent) (antibody, V domains shown)
VH: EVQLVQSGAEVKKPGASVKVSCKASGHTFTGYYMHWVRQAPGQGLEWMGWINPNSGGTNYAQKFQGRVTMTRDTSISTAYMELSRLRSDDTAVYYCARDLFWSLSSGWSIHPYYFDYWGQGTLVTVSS
VL: QSALTQPASVSGSPGQSITISCTGTSSDVGSYNLVSWYQQHPGKAPKLMIYGGSKRPSGVPDRFSGSKSGNTASLTISGLQAEDEADYYCSSYTYSGDVFGTGTKVTVL
On to B8, for which, in experiment [4], the “IC50, pFGFR1 inhibition in NCI-H520 cells, FGF1, SEEDbody” value is more than 1e-06 M; the “IC50, pFGFR1 inhibition in NCI-H520 cells, FGF2, SEEDbody” value was 4e-07 M; the “IC50, pFGFR1 inhibition in NCI-H520 cells, non-stimulated, SEEDbody” value was more than 1e-06 M.

B9: mAb #A02 IgG1 (antibody, V domains shown)
VH: QVQLQESGPGLVKPSGTLSLTCAVSGGSISSNNWWSWVRQPPGKGLEWIGEIYHSGSTSYNPSLKSRVTISVDKSKNQFSLKLSSVTAADTAVYYCARATDWFDLWGQGTLVTVSS
VL: SYVLTQPPSVSVAPGQTARITCGGNNIGSESVHWYQQKPGQAPVLVVYDDSDRPSGIPERFSGSNSGNTATLTISRVEAGDEADYYCQVWDSTSDHRVFGGGTKLTVL
notes: constant regions not tied
Take B9: in experiment [5], the binding result is “binds”. For the same molecule, binding in experiment [6] was put at a Kd of 50 pM.

B10: #A07 IgG1 (antibody, V domains shown)
VH: B9 VH with A99G, F103Y, L105P
VL: SYVLTQPPSVSVAPGQTARITCGGNNIGSESVHWYQQKPGQAPVLVVYDDSDRPSGIPERFSGSNSGNTATLTISRVEAGDEADYYCQVWDSTSDHRVFGGGTKLTVLG
notes: heavy constant region not tied
B10 yielded a Kd in experiment [6] of 60 pM.

B11: mAb #C01 IgG1 (antibody, V domains shown)
VH: B9 VH with L105A
VL: B9 VL
notes: constant regions not tied
For B11, in experiment [5], the binding result was “binds”. In experiment [6], the affinity, expressed as Kd, was 30 pM.

B12: mAb #D01 IgG1 (antibody, V domains shown)
VH: B9 VH with L105H
VL: B10 VL
notes: as for B10
As for B12, the Kd in experiment [6] stood at 30 pM.

B13: #B10 IgG1 (antibody, V domains shown)
VH: B9 VH with F103Y, L105P
VL: B10 VL
notes: as for B10
As for B13, binding in experiment [6] was put at a Kd of 20 pM.

The values are drawn from patent US20190367620A1 (Merck KGaA, published 2019).
